Reference: publication PMC7921785

Target: T1, rPcDp1 (recombinant Dp1) (Pseudosciaena crocea (large yellow …, UniProt D2CFQ6 1-412))
T1 sequence: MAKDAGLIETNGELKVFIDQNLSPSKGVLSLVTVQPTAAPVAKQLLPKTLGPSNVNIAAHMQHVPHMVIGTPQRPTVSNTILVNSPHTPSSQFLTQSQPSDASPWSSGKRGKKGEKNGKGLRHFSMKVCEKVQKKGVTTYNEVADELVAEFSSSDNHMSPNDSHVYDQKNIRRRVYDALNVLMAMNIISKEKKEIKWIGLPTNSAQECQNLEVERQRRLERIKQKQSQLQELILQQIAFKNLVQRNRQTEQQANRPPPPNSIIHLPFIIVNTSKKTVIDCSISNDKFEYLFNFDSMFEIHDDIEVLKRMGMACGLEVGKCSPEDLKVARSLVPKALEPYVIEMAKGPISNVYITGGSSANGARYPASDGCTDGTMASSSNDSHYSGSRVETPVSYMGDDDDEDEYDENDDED
Test: EMSA

B1: wE2F (WE2Fsite) (dsDNA)
DNA 1: GAGATGACGTAGTTTTCGCGCGAAACTAG
DNA 2: CTAGTTTCGCGCGAAAACTACGTCATCTC
  binding result: binds
